Reference: publication PMC2811000

Tests used:
[1] = target: acrylodan-labeled C-terminal catalytic kinase/phosphatase domain of PNKP (human); test: other fluorescence titration
[2] = target: acrylodan-labeled FHA domain of PNKP (human) (UniProt Q96T60); test: other fluorescence titration

Kd [1] | AC fluorescence quenching [2] | Kd [2] | stoichiometry N [2] | AC fluorescence quenching [1] | Substance
43 nM | – | – | – | – | non-phosphorylated XRCC1 (from UniProt P18887 1-633) (natural protein)
– | 50% | 3.5 nM | 1.08 | 8% | CK2-phosphorylated XRCC1 (from UniProt P18887 1-633) (natural protein)
